IntAct's records for PubMed 10677492

B1: Dolichyl-diphosphooligosaccharide--protein glycosyltransferase subunit OST4 (Saccharomyces cerevisiae), Q99380 (parent)
chain: MISDEQLNSLAITFGIVMMTLIVIYHAVDSTMSPKN
partner: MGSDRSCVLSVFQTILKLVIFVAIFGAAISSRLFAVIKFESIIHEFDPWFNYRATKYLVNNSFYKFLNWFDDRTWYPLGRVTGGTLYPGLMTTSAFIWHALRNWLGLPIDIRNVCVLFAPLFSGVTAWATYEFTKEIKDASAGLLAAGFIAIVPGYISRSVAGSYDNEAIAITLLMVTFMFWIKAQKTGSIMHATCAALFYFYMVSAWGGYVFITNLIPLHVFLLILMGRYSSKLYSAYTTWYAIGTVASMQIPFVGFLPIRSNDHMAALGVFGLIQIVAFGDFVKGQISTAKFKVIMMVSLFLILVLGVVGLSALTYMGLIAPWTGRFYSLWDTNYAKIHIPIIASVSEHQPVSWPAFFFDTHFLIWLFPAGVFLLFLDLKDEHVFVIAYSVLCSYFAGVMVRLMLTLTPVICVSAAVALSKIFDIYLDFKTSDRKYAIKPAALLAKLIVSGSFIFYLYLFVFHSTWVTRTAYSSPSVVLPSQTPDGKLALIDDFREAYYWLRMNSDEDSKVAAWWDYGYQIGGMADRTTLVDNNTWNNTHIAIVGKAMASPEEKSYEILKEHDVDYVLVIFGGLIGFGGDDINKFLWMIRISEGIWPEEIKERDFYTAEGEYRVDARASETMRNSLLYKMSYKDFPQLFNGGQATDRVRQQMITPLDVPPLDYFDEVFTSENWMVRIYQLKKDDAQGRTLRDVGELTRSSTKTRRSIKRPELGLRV
B2: Dolichyl-diphosphooligosaccharide--protein glycosyltransferase subunit OST4 (Saccharomyces cerevisiae), Q99380 (parent)
chain: B1 chain
partner: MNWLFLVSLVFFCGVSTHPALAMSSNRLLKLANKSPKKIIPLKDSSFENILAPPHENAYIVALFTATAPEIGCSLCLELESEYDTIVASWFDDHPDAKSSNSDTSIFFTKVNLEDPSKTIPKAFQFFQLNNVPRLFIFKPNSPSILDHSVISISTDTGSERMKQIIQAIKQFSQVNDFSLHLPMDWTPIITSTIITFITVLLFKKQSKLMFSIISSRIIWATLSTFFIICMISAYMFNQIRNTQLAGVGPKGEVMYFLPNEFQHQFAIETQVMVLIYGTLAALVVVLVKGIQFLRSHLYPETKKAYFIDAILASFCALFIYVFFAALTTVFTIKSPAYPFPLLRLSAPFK

Variants of: B1
Conditions: with stt3_yeast STT3, P39007

effect of a mutation on the interaction	Variant
disrupting interaction	M18K
disrupting interaction	I24K
disrupting interaction	L21K

Variants of: B2
Conditions: with ost3_yeast OST3, P48439

Variant	effect of a mutation on the interaction
I24K	disrupting interaction
L21K	disrupting interaction
V23K	disrupting interaction

The remaining lines, values ahead:

effect of a mutation on the interaction	Variant
disrupting interaction	M19K
disrupting interaction	M18K
disrupting interaction	T20K
